Assay results: US12012599B2, “Compositions and methods for modulating left-right differentiation factor (LEFTY) and bone morphogenic factor (BMP)” (CZ Biohub SF LLC, priority 2018, dated 2024)
Like-named read-outs stand apart in the source and are kept apart here.

Key:
[1] = tested on: pSMAD5 activation; experiment: pGL3 BRE-luciferase reporter in 3T3-L1 fibroblasts; format: cell-based; conditions: 16 hours
Protocol: FIGS. 7A-7E. LEFTY1 interaction with BMPR2 inhibits the phosphorylation of SMAD5. […] Ten different fields were counted per condition (n=3). […] 48 hours after transfection, cells were washed and incubated with different concentrations of BMP7 (from 0-800 ng/ml) for 16 hours prior to collection of the cells. […] 48 hours after transfection, cells were washed and incubated with different concentrations of LEFTY1 (from 0-200 ng/ml) for 16 hours prior to collection of the cells. […] 48 hours after transfection, cells were washed and incubated with different concentrations of BMP7 and LEFTY1 at the indicated concentrations for 16 hours prior to collection of the cells. Data are represented as median±S.D. Statistical analysis, one-way ANOVA with Dunnet's adjustment, *p<0.05; **p<0.01; ****p<0.0001.
FIGS. 7F-7I: pSMAD5 activation in the presence of LEFTY1, BMP2 and BMP4. […] 48 hours after transfection, cells were washed and incubated with different concentrations of BMP2 (from 0-800 ng/ml) for 16 hours prior to collection of the cells. […] 48 hours after transfection, cells were washed and incubated with different concentrations of BMP2 and LEFTY1 for 16 hours prior to collection of the cells. FIG. 7H and FIG. 7I show 3T3-L1 fibroblasts transfected with pGL3 BRE-luciferase plasmid. […]
We also evaluated whether LEFTY1 could inhibit pSMAD5 activation induced by other BMPs. […]

[2] = tested on: BMPR2; experiment: In situ target-mediated (proximity) ligation assay, BMPR2; format: binding
Text: FIGS. 5A-5H. LEFTY1 inhibits pSMAD2 and pSMAD5 in the basal mammary epithelial cells. […] KRT8 was used to stain the luminal cells and SMA for basal cells (Magnification 400×). […] Gapdh was used as a housekeeping gene. […] Ten different fields were counted per condition (n=3). Data are represented as median±S.D. Statistical analysis, (a and b) Student's T-test, * p<0.05; (h) One-way ANOVA with Dunnet's adjustment, ****p<0.0001.
(§1) FIGS. 5I-5J: LEFTY1 preferentially interacts with BMPR2. […] BMP7-BMPR2 interaction was used as a positive control, and mouse and rabbit IgGs were used as technical negative controls. The interaction of LEFTY with Wnt receptor LRP6 was analyzed as a biological negative control. […] Data are represented as median±S.D. Statistical analysis, one-way ANOVA post-hoc Tukey multiple comparison, ****p<0.0001, ***p<0.001; unless stated analysis is non-significant with p>0.05.
Since BMPR2 is upstream of pSMAD1/5/8, we reasoned that BMPR2 could serve as a common BMP Type II receptor that mediates the BMP7/LEFTY1 axis. […] The interaction between BMP7 and BMPR2 was used as a positive control (p<0.0001) (FIG. 5G-5H and FIG. 7B).
Next, we assessed the interaction of LEFTY with different type I and type II TGF-β receptors. […] We also analyzed the interaction of LEFTY with Wnt receptor LRP6 as a biological negative control. […]

[3] = tested on: ACVR2B; experiment: Proximity ligation assay with other TGF-β receptors; format: binding
Protocol: as §1
Next, we assessed the interaction of LEFTY with different type I and type II TGF-β receptors. BMP7-BMPR2 interaction was used as a positive control, and mouse and rabbit IgGs were used as technical negative controls. We also analyzed the interaction of LEFTY with Wnt receptor LRP6 as a biological negative control.

B1: LEFTY1: left-right determination factor 1, secreted TGF-β superfamily protein; generic LEFTY may mean LEFTY1 or LEFTY2 (protein, UniProt O75610 77-366, looked up)
Left-right determination …: RFSQSFREVAGRFLALEASTHLLVFGMEQRLPPNSELVQAVLRLFQEPVPKAALHRHGRLSPRSARARVTVEWLRVRDDGSNRTSLIDSRLVSVHESGWKAFDVTEAVNFWQQLSRPRQPLLLQVSVQREHLGPLASGAHKLVRFASQGAPAGLGEPQLELHTLDLGDYGAQGDCDPEAPMTEGTRCCRQEMYIDLQGMKWAENWVLEPPGFLAYECVGTCRQPPEALAFKWPFLGPRQCIASETDSLPMIVSIKEGGRTRPQVVSLPNMRVQKCSCASDGALVPRRLQP
- inhibition of BMP7-mediated pSMAD5 activation [1]: inhibit BMP7-mediated pSMAD5 activation in a dose-dependent fashion
- inhibition of pSMAD5 activation induced by BMP2 or BMP4 [1]: less of an inhibitory effect
- protein interaction with BMPR2 [2]: significant protein interaction
- protein interaction with BMPR2 ([2]; listed as LEFTY): interacted preferentially
- interaction with other TGF-β receptors, ACVR2B [3]: also interacted
